# Source: paper PMC8262886, “The Breadth and Molecular Basis of Hcp-Driven Type VI Secretion System Effector Delivery” (mBio, 2021)
# B1: Hcp1-His (natural protein)
# chain: MAVDMFIKIGDVKGESKDKTHAEEIDVLAWSWGMSQSGSMHMGGGGGAGKVNVQDLSFTKYIDKSTPNLMMACSSGKHYPQAKLTIRKAGGENQVEYLIITLKEVLVSSVSTGGSGGEDRLTENVTLNFAQVQVDYQPQKADGAKDGGPVKYGWNIRQNVQA
# notes: Hcp1 of Pseudomonas aeruginosa, the Hcp of the H1-T6SS; also called His-tagged version of Hcp1; source: E. coli BL21(λDE3), from pACYCDuet-1; coexpressed with an effector, in lysate, copurified (Ni-NTA, SEC); also purified alone (Ni-NTA, SEC); not shown: His, C-terminal, kept
# Molecular target: the molecule itself
# Test: negative-stain electron microscopy; purified Hcp1-His diluted to 0.01 mg/ml, 2% uranyl acetate, 2D class averages with top and side views
protein,measurement,value
B1,binding result,binds
